Where a chain is given by its changes, count along the chain named.
How the values were obtained:
[1] = biological target: T1, human ROR1 (full-length, on the cell surface) (human, UniProt Q01973 30-937); assay: flow cytometry on HT29 cells, MFI against antibody concentration
T1 construct: whole, on cells; the tumour cell lines carry their own ROR1; also called Ba/F3-ROR1 cells; Jeko-1
Source text: (§1) The affinity of the candidate antibodies to ROR1 on the surface of human cells was detected by flow cytometry. In addition to the Ba/F3-ROR1 overexpression cells, human mantle cell lymphoma cell line Jeko-1 (ATCC, Cat. No.: CRL-3006), human colon cancer cell line HT-29 (ATCC, Cat. No.: HTB-38), human lung cancer cell line A549 (ATCC, Cat. No.: CCL-185) were also used for the binding assay. The anti-human ROR1 antibody UC961 (for sequence, see WO2018237335A1) with mouse or human IgG1 Fc was used as a positive control, and the anti-2,4,6-trinitrophenol antibody (ATCC) with the corresponding mouse or human IgG1 Fc was used as a negative control. Mouse IgG isotype control (Thermo Fisher, Cat. No.: 31903) was also used as a negative control.

[2] = biological target: T1, human ROR1 (full-length, on the cell …); assay: flow cytometry on Jeko-1 cells, MFI against antibody concentration
Source text: as §1

[3] = biological target: T1, human ROR1 (full-length, on the cell …); assay: cell-based or functional assay
[4] = biological target: T2, human ROR2 extracellular domain (ECD) protein (human, UniProt Q01974 34-403); assay: ELISA on coated human ROR2 ECD protein (1 ug/mL), OD at 450 nm
T2 construct: extracellular domain; Bought protein; also called human ROR2 ECD protein; Sino Biologicals 16133-H08H
Procedure: It was confirmed by ELISA using extracellular domain (ECD) protein of human ROR2 that the binding specificity of the candidate antibodies to human ROR1 was higher than that of human ROR2. The specific method was as follows: 1 μg/mL human ROR2 extracellular domain (ECD) protein (Sino Biologicals, Cat. No.: 16133-H08H) was added in a 96-well ELISA plate (Thermo Fisher, Cat. No.: 5129) at 100 μL/well, for coating overnight at 4° C. 200 μL of washing buffer (1×TBS containing 0.05% Tween-20) was used to wash 3 times, different concentrations of eight purified mouse-anti-human ROR1 candidate antibodies and UC961 were added at 100 μL, incubated at 37° C. for 1 hour, and mouse-anti-human ROR2 antibody (R&D systems, Cat. No.: MAB2064) was used as a positive control. Washing was performed 3 times with 200 μL of washing buffer, 100 μL of anti-human IgG (Rockland Inc, Cat. No. 609-1304) or anti-mouse IgG secondary antibody (Rockland Inc, Cat. No. 610-1304) diluted at a ratio of 1:10000 were added to each well, incubated at 37° C. for 1 hour. Washing was performed 3 times with 200 μL of washing buffer, 100 μL of TMB (Thermo Fisher, Cat. No.: TMBW-1000-01) was added for color development in the dark for 10 minutes, then 100 μL of stop solution (Thermo Fisher, Cat. No.: 13361-100-10) was added to stop the color development, and reading was carried out by microplate reader at 450 nm.

[5] = biological target: T1, human ROR1 (full-length, on the cell …); assay: flow cytometry on A549 cells, MFI against antibody concentration
Source text: as §1

[6] = biological target: T1, human ROR1 (full-length, on the cell …); assay: flow cytometry, A549 cells
Procedure: (§2) The affinities of the purified anti-human ROR1 chimeric antibodies binding to the Ba/F3-ROR1, Jeko-1, HT-29 and A549 cells were analyzed by flow cytometry. The specific experimental steps were as follows: the Ba/F3-ROR1, Jeko-1, HT-29 and A549 cells were incubated with the purified chimeric antibodies of different concentration gradients on ice for 30 minutes, and the anti-ROR1 antibody UC961 with human IgG1 and the anti-TNP antibody were used as positive and negative controls respectively.

[7] = biological target: T1, human ROR1 (full-length, on the cell …); assay: flow cytometry, Jeko-1 cells
Procedure: as §2

human ROR1 ECD protein [8] = biological target: T3, human ROR1 ECD protein (human, UniProt Q01973 30-406); assay: BLI (Octet), antibody on AHC sensor, ROR1 ECD in solution, 1:1 model
T3 construct: range 30-406; Expressed in Expi293 or ExpiCHO cells; also called Recombinant human ROR ECD
Source text: Octet ForteBio is widely used in the detection of antibody-antigen dynamic affinity. This method was used to determine the dynamic affinities of the candidate chimeric antibodies 3D8-Chi, 19F6-Chi and 38F8-Chi and the positive control antibody UC961 to human ROR1.

[9] = biological target: T1, human ROR1 (full-length, on the cell …); assay: flow cytometry, Ba/F3-ROR1 cells
Procedure: as §2

[10] = biological target: T1, human ROR1 (full-length, on the cell …); assay: flow cytometry, HT-29 cells
Procedure: as §2

human ROR1 ECD protein [11] = biological target: T3, human ROR1 ECD protein; assay: BLI (Octet), antibody on AHC sensor, ROR1 ECD in solution
[12] = biological target: T1, human ROR1 (full-length, on the cell …); assay: flow cytometry on Ba/F3-ROR1 cells, MFI against antibody concentration
Source text: as §1

T2 sequence (Q01974 34-403): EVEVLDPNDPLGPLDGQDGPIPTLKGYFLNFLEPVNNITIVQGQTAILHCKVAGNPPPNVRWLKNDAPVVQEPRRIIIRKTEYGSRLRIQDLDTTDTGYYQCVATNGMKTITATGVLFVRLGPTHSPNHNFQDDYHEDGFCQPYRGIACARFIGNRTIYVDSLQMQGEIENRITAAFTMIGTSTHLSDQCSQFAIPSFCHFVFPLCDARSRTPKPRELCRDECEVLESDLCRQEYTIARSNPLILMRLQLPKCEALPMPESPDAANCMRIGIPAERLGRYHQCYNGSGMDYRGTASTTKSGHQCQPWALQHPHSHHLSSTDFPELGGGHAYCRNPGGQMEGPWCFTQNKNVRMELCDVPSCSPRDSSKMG
T3 sequence (Q01973 30-406): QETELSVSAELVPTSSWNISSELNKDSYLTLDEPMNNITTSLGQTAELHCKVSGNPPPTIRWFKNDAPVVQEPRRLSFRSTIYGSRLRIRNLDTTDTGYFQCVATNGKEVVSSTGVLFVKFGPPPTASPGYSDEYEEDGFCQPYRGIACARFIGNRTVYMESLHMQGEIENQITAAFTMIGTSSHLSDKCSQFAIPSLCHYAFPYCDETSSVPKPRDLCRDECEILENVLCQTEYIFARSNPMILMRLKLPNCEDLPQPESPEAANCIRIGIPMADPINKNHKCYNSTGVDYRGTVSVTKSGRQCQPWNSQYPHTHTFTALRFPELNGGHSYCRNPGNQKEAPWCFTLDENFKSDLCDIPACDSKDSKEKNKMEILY
T1 sequence (Q01973 30-937): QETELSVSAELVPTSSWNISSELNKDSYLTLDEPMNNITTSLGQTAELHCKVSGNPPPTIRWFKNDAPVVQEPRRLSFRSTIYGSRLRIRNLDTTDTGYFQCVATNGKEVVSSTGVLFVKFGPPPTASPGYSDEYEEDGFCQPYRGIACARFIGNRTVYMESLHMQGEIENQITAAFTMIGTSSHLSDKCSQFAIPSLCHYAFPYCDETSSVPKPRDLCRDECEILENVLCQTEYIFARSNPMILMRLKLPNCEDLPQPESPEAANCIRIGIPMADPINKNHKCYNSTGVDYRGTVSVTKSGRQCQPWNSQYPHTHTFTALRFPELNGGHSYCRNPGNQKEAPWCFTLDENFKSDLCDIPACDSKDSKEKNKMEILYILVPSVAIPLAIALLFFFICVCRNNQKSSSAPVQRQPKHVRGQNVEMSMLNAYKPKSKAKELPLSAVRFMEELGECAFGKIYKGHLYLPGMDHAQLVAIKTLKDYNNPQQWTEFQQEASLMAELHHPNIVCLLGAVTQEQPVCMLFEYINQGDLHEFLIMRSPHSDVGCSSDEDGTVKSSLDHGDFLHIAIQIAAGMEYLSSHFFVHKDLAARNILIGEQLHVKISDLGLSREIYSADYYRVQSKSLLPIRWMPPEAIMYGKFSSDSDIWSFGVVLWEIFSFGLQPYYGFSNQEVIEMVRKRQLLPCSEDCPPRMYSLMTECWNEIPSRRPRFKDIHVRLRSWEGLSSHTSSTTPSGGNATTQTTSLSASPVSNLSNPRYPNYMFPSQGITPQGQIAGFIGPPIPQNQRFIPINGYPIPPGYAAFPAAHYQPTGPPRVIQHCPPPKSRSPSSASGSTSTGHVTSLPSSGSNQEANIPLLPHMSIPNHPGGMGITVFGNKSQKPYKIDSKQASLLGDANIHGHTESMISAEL

B1: Murine antibody 19F6.2.3 (antibody, V domains shown)
VH: DVQLQESGPGLVKPSQSLSLTCTVTGYSITSDYAWNWIRQFPGNKLEWMGYISYSGSIRYNPSLKSRISITRDTSKNQFFLQLNSVTTEDTATYYCARGEITYYFDYWGQGTTLTVSS
VL: DIKMTQSPASLSMAIGEKVTIRCITTTDIDDDMNWYQQKPGEPPKLLISEGNTLRPGVPSRFSSSGYGTDFVFTIENMVSEDVADYYCLQSNDLPLTFGAGTKLELK
notes: Hybridoma antibody
[1]
  EC50 (read off the curve): ~0.02 µg/mL
[2]
  EC50 (read off the curve): ~0.008 µg/mL
[3]
  activity of inducing internalization on Jeko-1 cells (Mab-ZAP, by IC50), fold over UC961: 23.4 fold
[4]
  binding result: no binding (tested: about 5000 ng/ml)
[5]
  EC50 (read off the curve): ~0.01 µg/mL

B2: 38F8-Chi (antibody, human IgG1, kappa, V domains shown)
VH: EVKLVESGGDLVKPGGSLKLSCTASGFTFSNYAMSWVRQTPEKRLEWVASISSGGPTYYPDSVKGRFTVSRDNARNILYLQMSSLRSEDTAMYYCARGYRYDVNWYFDVWGAGTSVTVSS
VL: DIKMTQSPSSMYASLGERVTITCKASQDINSYLTWFQQKPGKSPKTLIHRANRLVDGVPSRFSGSGSGQDYSLTISSLEYEDMGIYYCLQYDEFPYTFGGGTKLEIKR
notes: Variable regions of 38F8.1.1 on human IgG1 / kappa constant regions; also called anti-human ROR1 chimeric antibody 38F8-Chi
[6]
  EC50: 0.091 nM
[7]
  EC50: 0.563 nM
Human ROR1 ECD protein [8]
  Kd: 3.17 nM
  koff: 0.00299 s⁻¹
  kon: 942000 M⁻¹ s⁻¹
[9]
  EC50: 0.416 nM
[10]
  EC50: 0.22 nM
Human ROR1 ECD protein [11]
  fold stronger affinity than UC961 (by KD): 5 fold

B3: Murine antibody 3D8.2.3 (antibody, V domains shown)
VH: EVKLVESGGGLVKPGGSLKLSCAASGFTFSSYAMSWVRQTPEKRLEWVASINSGGSTYYPDSVKGRFTISRDNARNILYLQMSSLRSEDTAMYYCARVNYYGYGDYAMDYWGQGTSVTVSS
VL: DIKMTQSPSSMYASLGERVTITCKASQDINSYLSWFQQKPGKSPKTLIYRANRLVDGVPSRFSGSGSGQDYSLTISSLEYEDMGIYYCLQYDEFPYTFGGGTNLEIK
notes: Hybridoma antibody
[2]
  EC50 (read off the curve): ~0.02 µg/mL
[12]
  EC50 (read off the curve): ~0.06 µg/mL
[3]
  activity of inducing internalization on Jeko-1 cells (Mab-ZAP, by IC50), fold over UC961: 3.8 fold
[4]
  binding result: no binding (tested: about 5000 ng/ml)
[5]
  EC50 (read off the curve): ~0.03 µg/mL

B4: Murine antibody 38F8.1.1 (antibody, V domains shown)
VH: B2 VH
VL: B3 VL with S34T, Y49H, N103K
notes: Hybridoma antibody
[1]
  EC50 (read off the curve): ~0.04 µg/mL
[2]
  EC50 (read off the curve): ~0.03 µg/mL
[12]
  EC50 (read off the curve): ~0.06 µg/mL
[3]
  activity of inducing internalization on Jeko-1 cells (Mab-ZAP, by IC50), fold over UC961: 5.3 fold
[4]
  binding result: no binding (tested: about 5000 ng/ml)

Reference: US20240018237A1 (SICHUAN KELUN BIOTECH BIOPHARMACEUTICAL, published 2024)
